Like-named read-outs stand apart in the source and are kept apart here.
T1: WRNIP1 (short isoform) (Homo sapiens, UniProt Q96S55-2 1-640)
T1 sequence: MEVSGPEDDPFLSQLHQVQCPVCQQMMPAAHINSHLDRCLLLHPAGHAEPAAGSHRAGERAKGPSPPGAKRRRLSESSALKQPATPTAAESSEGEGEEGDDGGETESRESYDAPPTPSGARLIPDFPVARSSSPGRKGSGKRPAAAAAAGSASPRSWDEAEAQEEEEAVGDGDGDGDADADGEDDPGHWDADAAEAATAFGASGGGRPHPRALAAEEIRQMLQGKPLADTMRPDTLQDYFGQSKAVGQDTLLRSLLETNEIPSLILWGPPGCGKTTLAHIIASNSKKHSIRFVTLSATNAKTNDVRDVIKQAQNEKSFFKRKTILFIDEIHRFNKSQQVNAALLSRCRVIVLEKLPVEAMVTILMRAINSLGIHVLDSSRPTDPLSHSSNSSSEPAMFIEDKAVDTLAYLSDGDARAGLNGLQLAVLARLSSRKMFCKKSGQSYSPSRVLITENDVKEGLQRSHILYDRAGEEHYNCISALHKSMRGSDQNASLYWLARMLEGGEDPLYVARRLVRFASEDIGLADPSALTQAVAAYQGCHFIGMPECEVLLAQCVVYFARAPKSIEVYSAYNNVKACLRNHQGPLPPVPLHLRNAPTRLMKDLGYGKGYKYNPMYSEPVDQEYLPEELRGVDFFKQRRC

B1: ssDNA X01 (ssDNA)
DNA: GACGCTGCCGAATTCTACCAGTGCCTTGCTAGGACATCTTTGCCCACCTGCAGGTTCACCC
B2: nicked four-way junction (structured_DNA)
DNA 1: B1 DNA
DNA 2: TGGGTGAACCTGCAGGTGGGCAAAGATGTCCATCTGTTGTAATCGTCAAGCTTTATGCCGTT
DNA 3: CATGGAGCTGTCTAGAGGATCCGACTATCGA
DNA 4: GAACGGCATAAAGCTTGACGATTACAACAGAT
DNA 5: ATCGATAGTCGGATCCTCTAGACAGCTCCATGTAGCAAGGCACTGGTAGAATTCGGCAGCGT

What was measured:
WRNIP1 (short isoform) [1] = molecular target: T1, WRNIP1 (short isoform); experiment: EMSA
WRNIP1 (short isoform) [2] = molecular target: T1, WRNIP1 (short isoform); experiment: EMSA; remark: listed apart in the source

Binder	binding result (WRNIP1 (short isoform) [1])	binding result (WRNIP1 (short isoform) [2])
B1	no binding	
B2		binds

— paper PMC6820244
